Assay results from the RNAGym collection of RNA variant scans (doi:10.1093/molbev/msab373).

B1: Azoarcus group I ribozyme (parent)
chain: GUGCCUUGCGCCGGGAAACCACGCAAGGGAUGGUGUCAAAUUCGGCGAAACCUAAGCGCCCGCCCGGGCGUAUGGCAACGCCGAGCCAAGCUUCGGCGCCUGCGCCGAUGAAGGUGUAGAGACUAGACGGCACCCACCUAAGGCAAACGCUAUGGUGAAGGCAUAGUCCAGGGAGUGGCGAAAGUCACACAAACCGG

Variants of: B1
Experiment: reverse-splicing fitness (ratio to wild type); higher = more active; in vitro selection; Mg2+ level not given
Procedure, shortened: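 An in vitro group I ribozyme library with randomized positions was T7-transcribed and gel-purified. In triplicate, 10 pmol RNA in EPPS pH 7.5 was reacted with 50 pmoles of a 30-nt RNA substrate for 1 h at 37 °C across several added MgCl2 levels (1–48 mM), then stopped with EDTA. Products were reverse transcribed from a substrate-complementary primer, PCR-amplified and sequenced (HiSeq 4000). Fitness is a variant's read proportion after selection over that before, normalised to wild type.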

Variant	reverse-splicing fitness
C82G A111G A120G A145G C150G C169G U176G	0.0063
C82G A111G A120G A145G C150G C169G U176A	0.0111
C82G A111G A120G A145G C150G C169G U176C	0.0118
C82G A111G A120G A145U C150G C169A U176G	0.00555
C82G A111G A120G A145U C150G C169A U176C	0.0133
C82G A111G A120G A145U C150G C169A U176A	0.0118
C82G A111G A120G A145U C150A C169G U176C	0.0174
C82G A111G A120G A145U C150A C169G U176A	0.017
C82G A111G A120G A145U C150A C169G U176G	0.00454
C82G A111G A120G A145G C169A U176C	0.0235
C82G A111G A120G A145G C169A U176A	0.0166
C82G A111G A120G A145G C169A U176G	0.00443
C82G A111G A120G C150A C169G U176C	0.0263
C82G A111G A120G C150A C169G U176G	0.00621
C82G A111G A120G C150A C169G U176A	0.0239
C82G A111G A120G A145G U176C	0.0204
C82G A111G A120G A145G U176G	0.00696
C82G A111G A120G A145G U176A	0.0129
C82G A111G A120G A145G C150U U176G	0.00823
C82G A111G A120G A145G C150U U176A	0.0115
C82G A111G A120G A145G C150U U176C	0.0189

Variant	reverse-splicing fitness
C82G A111G A120G C150U C169G	0.0154
C82G A111G A120G C150U C169A	0.0118
C82G A111G A120G C150U C169U	0.0114
C82G A111G A120G A145U C150A C169U	0.00794
C82G A111G A120G A145U C150A C169G	0.00924
C82G A111G A120G A145U C150A C169A	0.0096
C82G A111G A120G A145U C169U U176A	0.0191
C82G A111G A120G A145U C169U U176C	0.0161
C82G A111G A120G A145U C169U U176G	0.00384
C82G A111G A120G A145U C150U C169A U176C	0.0159
C82G A111G A120G A145U C150U C169A U176G	0.00619
C82G A111G A120G A145U C150U C169A U176A	0.0154
C82G A111G A120G A145G C150A U176C	0.0232
C82G A111G A120G A145G C150A U176G	0.0096
C82G A111G A120G C150A C169U	0.00799
C82G A111G A120G C150A C169A	0.0123
C82G A111G A120G C150A C169G	0.0105
C82G A111G A120G A145U C150A C169A U176C	0.0159
C82G A111G A120G A145U C150A C169A U176A	0.0175
C82G A111G A120G A145U C150A C169A U176G	0.00495
C82G A111G A120G A145G C150U C169G U176C	0.0201

Variant	reverse-splicing fitness
C82G A111G A120G A145G C150U C169G U176G	0.00532
C82G A111G A120G A145G C150U C169G U176A	0.0139
C82G A111G A120G A145G C169U U176G	0.00529
C82G A111G A120G A145G C169U U176A	0.0188
C82G A111G A120G A145G C169U U176C	0.019
C82G A111G A120G A145G C150G U176G	0.00608
C82G A111G A120G A145G C150G U176A	0.00718
C82G A111G A120G A145G C150G U176C	0.0114
C82G A111G A120G C150A C169A U176A	0.0233
C82G A111G A120G C150A C169A U176C	0.0216
C82G A111G A120G C150A C169A U176G	0.00698
C82G A111G A120G A145U C169A	0.0118
C82G A111G A120G A145U C169G	0.0203
C82G A111G A120G A145U C169U	0.012
C82G A111G A120G A145G C150G C169A	0.00957
C82G A111G A120G A145G C150G C169U	0.00986
C82G A111G A120G A145G C150G C169G	0.00845
C82G A111G A120G C150U C169A U176A	0.0193
C82G A111G A120G C150U C169A U176C	0.0197
C82G A111G A120G C150U C169A U176G	0.00607
C82G A111G A120G A145U C150G C169A	0.01

Variant	reverse-splicing fitness
C82G A111G A120G A145U C150G C169U	0.00943
C82G A111G A120G A145U C150G C169G	0.00827
C82G A111G A120G A145U C150U C169U U176G	0.00452
C82G A111G A120G A145U C150U C169U U176A	0.0186
C82G A111G A120G A145U C150U C169U U176C	0.0182
C82G A111G A120G C169A U176C	0.0232
C82G A111G A120G C169A U176A	0.022
C82G A111G A120G C169A U176G	0.00429
C82G A111G A120G C150A U176C	0.023
C82G A111G A120G C150A U176A	0.0148
C82G A111G A120G C150A U176G	0.0109
C82G A111G A120G A145U C150U C169G U176A	0.0161
C82G A111G A120G A145U C150U C169G U176C	0.0179
C82G A111G A120G A145U C150U C169G U176G	0.00518
C82G A111G A120G C150G U176A	0.0085
C82G A111G A120G C150G U176C	0.0157
C82G A111G A120G C150G U176G	0.00387
C82G A111G A120G A145G C150G C169A U176G	0.00881
C82G A111G A120G A145G C150G C169A U176C	0.0138
C82G A111G A120G A145G C150G C169A U176A	0.0146
